Laboratory results taken from patent US20230115257A1 (published 2023).
Positions count from the first letter of the chain named.

B1: 9-M12-A (antibody, V domains shown)
VH: EVQLVESGGDLVKPGGSLKLSCTASGFTFSSYGMSWVRQTPDKRLEWVTTISSGGGYTYVPDSVKGRFTISRDNAKNTLYLHMSSLKSEDTAMYFCARPLIPTMVEAFDYWGQGTSLTVSS
VL: SIVMTQTPKFLPVSAGDRVTMTCKASQSVGNNVAWYQQKPGQSPKLLIYYASNRYTGVPDRFTGSGSGADFTFTISSVQVEDLAVYFCQQHYSSPFTFGTGTKLEIK
B2: 10-J24-A (antibody, V domains shown)
VH: EVQLVESGGGLVKPGGSLKLSCAASGFTFSSYAMSWVRQNPAKRLEWVATISGGGGFTYYPDSVKGRFTISRDNAKNTLYLQMNSLRSEDTAMYYCARDEDGKHDYFDYWGQGTTLTVSS
VL: DIVMTQSHKFMSTSVGDRVSITCKASQDVGTAVAWYQQKPGQSPKLLIYWASTRHTGVPDRFTGSGSGTDFTLTISNVQSEDLADYFCQQYASYPLTFGGGTKLVIK
B3: 6-C19-A (antibody, V domains shown)
VH: QIQLVQSGPELKKPGETVKISCKASGNTFTTAGMQWVQKMPGKGFKWIGWINTHSGEPKYAEDFKGRFAFSLETSASTAYLQISNLKNEDTATYFCARYGDYYYFDCWGQGTTLTVSS
VL: DIQMTQSPASLSASVGETVTITCRASGNIHNYLAWYQQKQGKSPQLLVYNAKTLADGVPSRFSGSGSGTQYSLKINSLQPEDFGSFYCQHFWTTPWSFGGGTKLEIK
B4: 2-B20-A (antibody, V domains shown)
VH: QIQLVQSGPELKKPGETVKISCKASGYTFTTYGMSWVKQAPGKGLKWMGWINTFSGLPTYADDFNGRFAFSLETSASTAYLQINNLKDEDTATYFCARVKVHDYDGDFYGMDYWGQGTSVTVSS
VL: DVVLTQTPLSLPVNIGDQASISCKSTKSLLNSDGFTYLDWYLQKPGQSPQLLIYLVSNRFSGVPDRFSGSGSGTDFTLKISRVEAEDLGVYYCFQSNYLPLTFGAGTKLELK
B5: 4-A22-A (antibody, V domains shown)
VH: EVQLQQSGPELVKPGASVKMSCKASGYTFTSYVMHWVKQKPGQGLEWIGYINPYNDGTEYNEKFKGKATLTSDKSSSTAYMELSSLTSEDSAVYYCAREAYRYFDVWGTGTTVTVSS
VL: DIQMTQSPASLSVSVGETVTITCRASENIYSNLAWYQQKQGKSPQLLVYAATNLAEGVPSRFSGSGSGTQYSLKINSLQSEDFGSYYCQHFWGTPWTFGGGTKLEIK
B6: 6-N1-A (antibody, V domains shown)
VH: EVQLQQSGPELVKPGASVKISCKASGYTFTDYYMNWVQQSHGKSLEWIGDINPNNGGIRYNQNFKGKATLTVEKSSSTAYMELRSLTSEDSAVYYCARRQVFYDGYYDYAMDYWGQGTSVTVSS
VL: DIVLTQSPASLAVSLGQRATISCRASQSVSTSSYSYMHWYQQKPGQPPKLLIKYASNLESGVPARFSGSGSGTDFTLNIHPVEEEDTATYFCQHNWEIPPTFGGGTKLEIK
B7: 4-C22-A (antibody, V domains shown)
VH: EVQLVESGGDLVKPGGSLKLSCAASGFTFSSFGMSWVRQTPDKRLEWVATISSGGGFTYYPDSVEGRFTISRDNAKNTLYLQMSSLKSEDTAMYYCARRLYDYDWFAYWGQGTLVTVSA
VL: B2 VL with F10I, G30V, Q38K, Y49H, A92S, G100A, V105E, I106L
B8: 9-G24-A (antibody, V domains shown)
VH: QVQLQQSGAELVRPGASVKLSCKASGYTFTDYEMHWVKQTPVHGLEWIGVIDPETGDTAYNQKFKDKATLTADKSSSTAYMELRSLTSEDSAVYYCARRRDYGNPYWYFDVWGAGTAVTVSS
VL: EIVLTQSPALMAASPGEKVTITCSASSSISSSNLHWYQQKSGTSPKPWIYGTSNLASGVPVRFSGSGSGTSYSLTISSMEAEDAATYVCQQWSNYPYTFGSGTKLEIK
B9: 2-B16-B (antibody, V domains shown)
VH: EVQLQQSGAELVRPGSSVKMSCKTSGYTFTSYGINWVKQRPGQGLEWIGYIYIGNGYTAYNEKFKGKATLTSDTSSSTAYMQLSSLTSEDSAIYFCARDGTRDAMDYWGQGTSVTVSS
VL: B5 VL with V13A, E56D, Y71F, S80P, W92Y, G93S, T94S

target: SARS-CoV-2 Beta (B.1.351) variant prefusion stabilized spike trimer protein (UniProt P0DTC2 14-1213); experiment: ELISA

Binder	EC50 [nM]
B1	0.47
B2	1.47
B3	1.53
B4	0.23
B5	5.97
B6	5.29
B7	0.53
B8	0.56
B9	0.27
